Results published in patent publication US20250262210A1 (TRUSTEES OF COLUMBIA UNIVERSITY IN THE CITY OF NEW YORK, published 2025).
Numbering of substitutions follows the chain as printed.

T1: LZTR1 R810W-FLAG (human, UniProt Q8N653 1-840)
T1 construct: Stably expressed in U87 cells by lentivirus; also called LZTR1-FLAG-R810W; LZTR1 RW; not shown: FLAG tag
T1 sequence (looked up): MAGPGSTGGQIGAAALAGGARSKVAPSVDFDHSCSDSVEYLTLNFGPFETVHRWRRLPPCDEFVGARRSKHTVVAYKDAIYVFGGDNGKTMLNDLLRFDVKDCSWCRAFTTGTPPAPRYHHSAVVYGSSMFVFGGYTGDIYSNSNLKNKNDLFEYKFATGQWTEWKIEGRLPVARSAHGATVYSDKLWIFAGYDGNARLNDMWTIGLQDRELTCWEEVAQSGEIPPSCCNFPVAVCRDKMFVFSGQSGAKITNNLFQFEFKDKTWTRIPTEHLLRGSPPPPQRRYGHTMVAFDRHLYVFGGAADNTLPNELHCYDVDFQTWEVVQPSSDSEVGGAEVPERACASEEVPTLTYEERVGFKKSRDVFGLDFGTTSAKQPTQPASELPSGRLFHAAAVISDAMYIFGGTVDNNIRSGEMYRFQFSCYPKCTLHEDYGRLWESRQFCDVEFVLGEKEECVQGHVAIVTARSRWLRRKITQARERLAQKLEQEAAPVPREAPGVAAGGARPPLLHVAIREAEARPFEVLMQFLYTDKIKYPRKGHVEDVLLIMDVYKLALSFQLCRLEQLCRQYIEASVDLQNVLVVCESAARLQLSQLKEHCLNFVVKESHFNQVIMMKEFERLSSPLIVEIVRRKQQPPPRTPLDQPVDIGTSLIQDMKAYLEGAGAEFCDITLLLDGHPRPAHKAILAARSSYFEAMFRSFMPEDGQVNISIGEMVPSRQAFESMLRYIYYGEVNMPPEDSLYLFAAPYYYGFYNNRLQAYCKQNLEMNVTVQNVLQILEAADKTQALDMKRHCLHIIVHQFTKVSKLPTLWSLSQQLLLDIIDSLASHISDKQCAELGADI

T2: LZTR1-FLAG (human, UniProt Q8N653 1-840)
T2 construct: Expressed in HEK 293T, HeLa or U87 cells; used as cell lysate; also called LZTR1 wild type-FLAG; LZTR1 WT; not shown: FLAG tag at the C-terminus
T2 sequence (looked up): T1 sequence (looked up) with W810R

B1: SHCBP1 (other, human, UniProt Q8NEM2 2-672, looked up)
chain: ADGSLTGGGLEAAAMAPERMGWAVEQELASLEKGLFQDEDSCSDCSYRDKPGSSLQSFMPEGKTFFPEIFQTNQLLFYERFRAYQDYILADCKASEVQEFTAEFLEKVLEPSGWRAVWHTNVFKVLVEITDVDFAALKAVVRLAEPYLCDSQVSTFTMECMKELLDLKEHRLPLQELWVVFDDSGVFDQTALAIEHVRFFYQNIWRSWDEEEEDEYDYFVRCVEPRLRLHYDILEDRVPSGLIVDYHNLLSQCEESYRKFLNLRSSLSNCNSDSEQENISMVEGLKLYSEMEQLKQKLKLIENPLLRYVFGYQKNSNIQAKGVRSSGQKITHVVSSTMMAGLLRSLLTDRLCQEPGEEEREIQFHSDPLSAINACFEGDTVIVCPGHYVVHGTFSIADSIELEGYGLPDDIVIEKRGKGDTFVDCTGADIKISGIKFVQHDAVEGILIVHRGKTTLENCVLQCETTGVTVRTSAEFLMKNSDLYGAKGAGIEIYPGSQCTLSDNGIHHCKEGILIKDFLDEHYDIPKISMVNNIIHNNEGYGVVLVKPTIFSDLQENAEDGTEENKALKIQTSGEPDVAERVDLEELIECATGKMELCARTDPSEQVEGNCEIVNELIAASTQKGQIKKKRLSELGITQADDNLMSQEMFVGIVGNQFKWNGKGSFGTFLF
B2: SHKBP1 (other, human, UniProt Q8TBC3 2-707, looked up)
chain: AAAATAAEGVPSRGPPGEVIHLNVGGKRFSTSRQTLTWIPDSFFSSLLSGRISTLKDETGAIFIDRDPTVFAPILNFLRTKELDPRGVHGSSLLHEAQFYGLTPLVRRLQLREELDRSSCGNVLFNGYLPPPVFPVKRRNRHSLVGPQQLGGRPAPVRRSNTMPPNLGNAGLLGRMLDEKTPPSPSGQPEEPGMVRLVCGHHNWIAVAYTQFLVCYRLKEASGWQLVFSSPRLDWPIERLALTARVHGGALGEHDKMVAAATGSEILLWALQAEGGGSEIGVFHLGVPVEALFFVGNQLIATSHTGRIGVWNAVTKHWQVQEVQPITSYDAAGSFLLLGCNNGSIYYVDVQKFPLRMKDNDLLVSELYRDPAEDGVTALSVYLTPKTSDSGNWIEIAYGTSSGGVRVIVQHPETVGSGPQLFQTFTVHRSPVTKIMLSEKHLISVCADNNHVRTWSVTRFRGMISTQPGSTPLASFKILALESADGHGGCSAGNDIGPYGERDDQQVFIQKVVPSASQLFVRLSSTGQRVCSVRSVDGSPTTAFTVLECEGSRRLGSRPRRYLLTGQANGSLAMWDLTTAMDGLGQAPAGGLTEQELMEQLEHCELAPPAPSAPSWGCLPSPSPRISLTSLHSASSNTSLSGHRGSPSPPQAEARRRGGGSFVERCQELVRSGPDLRRPPTPAPWPSSGLGTPLTPPKMKLNETSF
B3: SL C39A14 (other, human, UniProt Q15043 31-492, looked up)
chain: SSLGAPAISAASFLQDLIHRYGEGDSLTLQQLKALLNHLDVGVGRGNVTQHVQGHRNLSTCFSSGDLFTAHNFSEQSRIGSSELQEFCPTILQQLDSRACTSENQENEENEQTEEGRPSAVEVWGYGLLCVTVISLCSLLGASVVPFMKKTFYKRLLLYFIALAIGTLYSNALFQLIPEAFGFNPLEDYYVSKSAVVFGGFYLFFFTEKILKILLKQKNEHHHGHSHYASESLPSKKDQEEGVMEKLQNGDLDHMIPQHCSSELDGKAPMVDEKVIVGSLSVQDLQASQSACYWLKGVRYSDIGTLAWMITLSDGLHNFIDGLAIGASFTVSVFQGISTSVAILCEEFPHELGDFVILLNAGMSIQQALFFNFLSACCCYLGLAFGILAGSHFSANWIFALAGGMFLYISLADMFPEMNEVCQEDERKGSILIPFIIQNLGLLTGFTIMVVLTMYSGQIQIG
notes: Printed as SL C39A14; read as SLC39A14
B4: SMG9 (other, human, UniProt Q9H0W8 2-520, looked up)
chain: SESGHSQPGLYGIERRRRWKEPGSGGPQNLSGPGGRERDYIAPWERERRDASEETSTSVMQKTPIILSKPPAERSKQPPPPTAPAAPPAPAPLEKPIVLMKPREEGKGPVAVTGASTPEGTAPPPPAAPAPPKGEKEGQRPTQPVYQIQNRGMGTAAPAAMDPVVGQAKLLPPERMKHSIKLVDDQMNWCDSAIEYLLDQTDVLVVGVLGLQGTGKSMVMSLLSANTPEEDQRTYVFRAQSAEMKERGGNQTSGIDFFITQERIVFLDTQPILSPSILDHLINNDRKLPPEYNLPHTYVEMQSLQIAAFLFTVCHVVIVVQDWFTDLSLYRFLQTAEMVKPSTPSPSHESSSSSGSDEGTEYYPHLVFLQNKARREDFCPRKLRQMHLMIDQLMAHSHLRYKGTLSMLQCNVFPGLPPDFLDSEVNLFLVPFMDSEAESENPPRAGPGSSPLFSLLPGYRGHPSFQSLVSKLRSQVMSMARPQLSHTILTEKNWFHYAARIWDGVRKSSALAEYSRLLA
B5: SMS (other, human, UniProt P52788 2-366, looked up)
chain: AAARHSTLDFMLGAKADGETILKGLQSIFQEQGMAESVHTWQDHGYLATYTNKNGSFANLRIYPHGLVLLDLQSYDGDAQGKEEIDSILNKVEERMKELSQDSTGRVKRLPPIVRGGAIDRYWPTADGRLVEYDIDEVVYDEDSPYQNIKILHSKQFGNILILSGDVNLAESDLAYTRAIMGSGKEDYTGKDVLILGGGDGGILCEIVKLKPKMVTMVEIDQMVIDGCKKYMRKTCGDVLDNLKGDCYQVLIEDCIPVLKRYAKEGREFDYVINDLTAVPISTSPEEDSTWEFLRLILDLSMKVLKQDGKYFTQGNCVNLTEALSLYEEQLGRLYCPVEFSKEIVCVPSYLELWVFYTVWKKAKP
B6: SPRYD3 (other, human, UniProt Q8NCJ5 1-442, looked up)
chain: MRRTRRPRFVLMNKMDDLNLHYRFLNWRRRIREIREVRAFRYQERFKHILVDGDTLSYHGNSGEVGCYVASRPLTKDSNYFEVSIVDSGVRGTIAVGLVPQYYSLDHQPGWLPDSVAYHADDGKLYNGRAKGRQFGSKCNSGDRIGCGIEPVSFDVQTAQIFFTKNGKRVGSTIMPMSPDGLFPAVGMHSLGEEVRLHLNAELGREDDSVMMVDSYEDEWGRLHDVRVCGTLLEYLGKGKSIVDVGLAQARHPLSTRSHYFEVEIVDPGEKCYIALGLARKDYPKNRHPGWSRGSVAYHADDGKIFHGSGVGDPFGPRCYKGDIMGCGIMFPRDYILDSEGDSDDSCDTVILSPTARAVRNVRNVMYLHQEGEEEEEEEEEEEDGEEIEPEHEGRKVVVFFTRNGKIIGKKDAVVPSGGFFPTIGMLSCGEKVKVDLHPLSG
B7: SYDE1 (other, human, UniProt Q6ZW31 1-735, looked up)
chain: MAEPLLRKTFSRLRGREKLPRKKSDAKERGHPAQRPEPSPPEPEPQAPEGSQAGAEGPSSPEASRSPARGAYLQSLEPSSRRWVLGGAKPAEDTSLGPGVPGTGEPAGEIWYNPIPEEDPRPPAPEPPGPQPGSAESEGLAPQGAAPASPPTKASRTKSPGPARRLSIKMKKLPELRRRLSLRGPRAGRERERAAPAGSVISRYHLDSSVGGPGPAAGPGGTRSPRAGYLSDGDSPERPAGPPSPTSFRPYEVGPAARAPPAALWGRLSLHLYGLGGLRPAPGATPRDLCCLLQVDGEARARTGPLRGGPDFLRLDHTFHLELEAARLLRALVLAWDPGVRRHRPCAQGTVLLPTVFRGCQAQQLAVRLEPQGLLYAKLTLSEQQEAPATAEPRVFGLPLPLLVERERPPGQVPLIIQKCVGQIERRGLRVVGLYRLCGSAAVKKELRDAFERDSAAVCLSEDLYPDINVITGILKDYLRELPTPLITQPLYKVVLEAMARDPPNRVPPTTEGTRGLLSCLPDVERATLTLLLDHLRLVSSFHAYNRMTPQNLAVCFGPVLLPARQAPTRPRARSSGPGLASAVDFKHHIEVLHYLLQSWPDPRLPRQSPDVAPYLRPKRQPPLHLPLADPEVVTRPRGRGGPESPPSNRYAGDWSVCGRDFLPCGRDFLSGPDYDHVTGSDSEDEDEEVGEPRVTGDFEDDFDAPFNPHLNLKDFDALILDLERELSKQINVCL

molecular target: T1, LZTR1 R810W-FLAG; experiment: IP/MS, LZTR1 R810W-FLAG, U87
Outline: (§1)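 Gel slices were reduced with 5 mM DTT, alkylated with 11 mM IAA and digested overnight at 37° C. with trypsin. Peptides were analysed on an Orbitrap Fusion Tribrid by LC-MS/MS.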

Binding result, binds:
B1
B2
B3
B4
B5
B6
B7

molecular target: T2, LZTR1-FLAG; experiment: IP/MS, LZTR1 wild type-FLAG, U87
Outline: as §1

Binding result, binds:
B1
B2
B3
B4
B5
B6
B7
